Assay results from patent US11994512B2, “Single-cell genomic methods to generate ex vivo cell systems that recapitulate in vivo biology with improved fidelity” (Massachusetts Institute of Technology, priority 2018, dated 2024).

System: intracellular proteome of ENR+CD and ENR organoids
Assay: LC-MS/MS TMT proteomics of ENR+CD versus ENR organoids
Assay type: cell-based, C57BL/6 mice
Details: for Average logFC: ENR+CD versus ENR organoids, sample pairs in aggregate (n=4, 2 technical replicates from two biological donors); for M1-1 Log2 Median Normalized / M1-2 Log2 Median Normalized / M2-1 Log2 Median Normalized / M2-2 Log2 Median Normalized: protein abundance ratio ENR+CD versus ENR organoids, LC-MS/MS TMT proteomics; for M1-1 Log2 Median Normalized: sample pair M1-1; for M1-2 Log2 Median Normalized: sample pair M1-2; for M2-1 Log2 Median Normalized: sample pair M2-1; for M2-2 Log2 Median Normalized: sample pair M2-2; for change: up = enriched in ENR+CD, down = enriched in ENR, FDR<0.05 and log fold change cut-off

B1: Q9D816 (protein, UniProt Q9D816 1-490, looked up)
chain: MDPVLVLVLTLSCLLLLSLWRQNSGRGKLPPGPTPFPIIGNILQIDIKNISKSFNYFSKVYGPVFTLYFGSKPTVVVHGYEAVKEALDDLGEEFSGRGSFQIFERINNDLGVIFSNGTKWKELRRFSIMTLRSFGMGKRSIEDRIQEEASCLVEELRKANGSLCDPTFILSCAPSNVICSVIFHNRFDYKDEKFLNLMERLNENFKILNSPWMQVYNALPTLINYLPGSHNKVIKNFTEIKSYILGRVKEHQETLDMDNPRDFIDCFLIKMEQEKHNPHSEFTIESLMATVTDIFVAGTETTNITLRYGLLLLLKHTEVTAKVQAEIDHVIGRHRSPCMQDRTRMPYTDAMVHEIQRYIDLIPNNVPHAATCNVRFRSYFIPKGTELVTSLTSVLHDDKEFPNPEVFDPGHFLDENGNFKKSDYFMPFSIGKRMCVGEALARTELFLILTTILQNFNLKSLVDTKDIDTTPVANTFGRVPPSYQLYFIPR
modifications: full-length
**Q.** B1 was tested. Which “Average logFC” value did it give?
**A.** The value was 1.132.

**Q.** And the “M1-1 Log2 Median Normalized” value?
**A.** Its value is 0.664.

**Q.** And the “M1-2 Log2 Median Normalized” value?
**A.** Its value is 1.318.

**Q.** What about the “M2-1 Log2 Median Normalized” value of the same molecule?
**A.** Its value is 0.5735.

**Q.** What about the “M2-2 Log2 Median Normalized” value of the same molecule?
**A.** The value was 1.971.

**Q.** What about the change of the same molecule?
**A.** The change was “up”.

B2: Q9D8W7 (protein, UniProt Q9D8W7 1-154, looked up)
chain: MASVSTHGNQEKSPHLPPLSKQSLLFCPKSKLHIHRGEIAKIIRECQEESFWKRALPFSLISMLVTQGLVHQGYLAANPRFGSLPKVALAGLLGFGLGKASYIRVCQSKFHSFEDQLRGAGFGPEHNRHCLLTCEDCKTRRGLSEKAGSQPSAS
modifications: full-length
**Q.** For B2, which “Average logFC” value is on record?
**A.** Its value is −1.397.

**Q.** What about the “M1-1 Log2 Median Normalized” value of the same molecule?
**A.** The value was −0.573.

**Q.** What about the “M1-2 Log2 Median Normalized” value of the same molecule?
**A.** The value was −1.182.

**Q.** What about the “M2-1 Log2 Median Normalized” value of the same molecule?
**A.** The value was −1.9045.

**Q.** What about the “M2-2 Log2 Median Normalized” value of the same molecule?
**A.** The value was −1.927.

**Q.** What about the change of the same molecule?
**A.** Its change is “down”.

B3: Q9D9Z1 (protein, UniProt Q9D9Z1 1-312, looked up)
chain: MAAPEAEAQETAFRTTGPPTDSEPRPFPPSSRKFPFESAAADSNEDWAVAAEHYLKGSGENGGWEQPAPGVQPSHPATMASAKTVCDAQPHSMPSCGLPADTQTRATSKLPVKSKEADLLRHLHPGGPEPDVTKVTKSRRENGQVKAAETASRRNLRNSYKPFNKQKPEEELKDKNELLEAVNKQLHQKLTETQGELKDLTQKVELLEKFQDNCLALLESKGLNPGQETLASKQEPTTDHTDSMLLLETLKDELKVFNETAKKQMEELQALKVKLKLKEEESVQFLEQQTLCKDEASDFTIILEEMEQLLEM
modifications: full-length
**Q.** For B3, which “Average logFC” value is on record?
**A.** Its value is −1.13.

**Q.** And the “M1-1 Log2 Median Normalized” value?
**A.** The value was −1.473.

**Q.** What about the “M1-2 Log2 Median Normalized” value of the same molecule?
**A.** The value was −0.579.

**Q.** What about the “M2-1 Log2 Median Normalized” value of the same molecule?
**A.** The value was −0.8635.

**Q.** And the “M2-2 Log2 Median Normalized” value?
**A.** The value was −1.605.

**Q.** What about the change of the same molecule?
**A.** The change was “down”.

B4: Q9DA97 (protein, UniProt Q9DA97 1-430, looked up)
chain: MAEKPTNTSVPIPGSEDPQKENIRCLSTLGHFGFECLPTQLVNKSIQKGFSFNILCVGETGIGKTTLINTLFNTNLKETKSSHFYSKVGLTVKTYELLERNIPLRLTVVKTVGYGDQINKEASYQPVVDYLDAQFEAYLQEELKIKRSLADYHDSRIHVCLYFITPTGHSLKSLDLLTMKSIDRRVNIIPLIAKADSLSKNDLQRFKNNIMSELNSNGIQIYQFQVDDEASAQVNSSGLLPFAVVGSMEEVKVGKRMVRGRHYPWGVLQEVENENHCDFVKLRDLLLSTNMEDLKDQTHTQHYECYRSNRLQKLGFSDTGPDNRPVSFQEMYEAKRREFHNQCQKEEEELKQTFMQRVKEKELTFKDAEKELQDKFEHLKRIQQEEILKLEEERRKLEEQIIDFYKMKAASESAQAQVCTNIKKDKDRKK
modifications: full-length
**Q.** Which results are given for B4?
**A.** Average logFC: −1.147; M1-1 Log2 Median Normalized: −0.99; M1-2 Log2 Median Normalized: −1.148; M2-1 Log2 Median Normalized: −0.7465; M2-2 Log2 Median Normalized: −2.635; change: down

B5: Q9DBG7 (protein, UniProt Q9DBG7 1-636, looked up)
chain: MLDFFTIFSKGGLVLWCFQGVSDSCTGPVNALIRSVLLQERGGNNSFTHEALTLKYKLDNQFELVFVVGFQKILTLTYVDKLIDDVHRLFRDKYRTEIQQQSALSLLNGTFDFQNDFLRLLREAEESSKIRAPTTMKKFEDSEKAKKPVRSMIETRGEKTKEKAKNNKKRGAKKEGSDGTLATSKTAPAEKSGLSAGPENGELSKEELIRRKREEFIQKHGKGLDKSSKSTKSDTPKEKGKKAPRVWELGGCANKEVLDYSTPTTNGTPEAALSEDINLIRGTGPGGQLQDLDCSSSDDEGATQNTKPSATKGTLGGMFGMLKGLVGSKSLSREDMESVLDKMRDHLIAKNVAADIAVQLCESVANKLEGKVMGTFSTVTSTVKQALQESLVQILQPQRRVDMLRDIMDAQRRQRPYVVTFCGVNGVGKSTNLAKISFWLLENGFSVLIAACDTFRAGAVEQLRTHTRRLTALHPPEKHGGRTMVQLFEKGYGKDAAGIAMEAIAFARNQGFDVVLVDTAGRMQDNAPLMTALAKLITVNTPDLVLFVGEALVGNEAVDQLVKFNRALADHSMAQTPRLIDGIVLTKFDTIDDKVGAAISMTYITSKPIVFVGTGQTYCDLRSLNAKAVVAALMKA
modifications: full-length
**Q.** What does the source list for B5?
**A.** Average logFC: 1.192; M1-1 Log2 Median Normalized: 1.346; M1-2 Log2 Median Normalized: 1.118; M2-1 Log2 Median Normalized: 0.9025; M2-2 Log2 Median Normalized: 1.401; change: up

B6: Q9DCT8 (protein, UniProt Q9DCT8 1-208, looked up)
chain: MASKCPKCDKTVYFAEKVSSLGKDWHKFCLKCERCNKTLTPGGHAEHDGKPFCHKPCYATLFGPKGVNIGGAGSYIYEKPQTEAPQVTGPIEVPVVRTEERKTSGPPKGPSKASSVTTFTGEPNMCPRCNKRVYFAEKVTSLGKDWHRPCLRCERCSKTLTPGGHAEHDGQPYCHKPCYGILFGPKGVNTGAVGSYIYDKDPEGTVQP
modifications: full-length
**Q.** What does the source list for B6?
**A.** Average logFC: 1.386; M1-1 Log2 Median Normalized: 1.983; M1-2 Log2 Median Normalized: 1.517; M2-1 Log2 Median Normalized: 0.9975; M2-2 Log2 Median Normalized: 1.047; change: up

B7: Q9DD24 (protein, UniProt Q9DD24 1-104, looked up)
chain: MKPCQKMEGNLEKEDEPKPEEEPKPEEKPEEGQEPEEEEKSEETFRERLIRSLQDFQEDIHNRHLSSDDLFRDVEELDEIRKVRNKLIVTRWKANRSHPYPYLM
modifications: full-length
**Q.** For B7, which “Average logFC” value is on record?
**A.** The value was 1.262.

**Q.** What about the “M1-1 Log2 Median Normalized” value of the same molecule?
**A.** Its value is 1.266.

**Q.** What about the “M1-2 Log2 Median Normalized” value of the same molecule?
**A.** Its value is 0.97.

**Q.** And the “M2-1 Log2 Median Normalized” value?
**A.** The value was 1.6605.

**Q.** And the “M2-2 Log2 Median Normalized” value?
**A.** Its value is 1.153.

**Q.** And the change?
**A.** The change was “up”.

B8: Q9EPC5 (protein, UniProt Q9EPC5 1-134, looked up)
chain: MPADLSGTWNLLSSDNFEGYMLALGIDFATRKIAKLLKPQKVIEQNGDSFTIQTCSSLRNYLVKFKVGEEFEEDNKGLDNRKCTSLVTWENDKLTCVQRGEKKNRGWSHWIEGDQLHLEMFCEGQVCKQTFQRA
modifications: full-length
**Q.** How did the “Average logFC” value turn out when B8 was run?
**A.** The value was −2.14.

**Q.** What about the “M1-1 Log2 Median Normalized” value of the same molecule?
**A.** The value was −2.063.

**Q.** What about the “M1-2 Log2 Median Normalized” value of the same molecule?
**A.** Its value is −2.064.

**Q.** And the “M2-1 Log2 Median Normalized” value?
**A.** Its value is −2.2365.

**Q.** And the “M2-2 Log2 Median Normalized” value?
**A.** The value was −2.196.

**Q.** What about the change of the same molecule?
**A.** Its change is “down”.

B9: Q9ERH4 (protein, UniProt Q9ERH4 1-427, looked up)
chain: MTVPSAEELDSFKYSDLQNLAKRLGLRANMKADKLLKALKAHLNPETRKENKNQDENQFSTDETEIHVSSEEQAETESGGHVTKTRRRRRKKHKTIHGIPTSQTLLQDHLEMKGTDSSNFQNQENQENQDPRDTAEVPSLPEQRPEDGNAASSGEGEVNDIKDSKKPLEKRSLCTDEFSKLGNNKRTSATTPNFKKLHEARFKKMESIDEYIMRKKKHLKEHSSLNELKLDKKGIVTPVPPRGRLSVPCTPARQQCPQGHSATKMNVRFSAATKDNEHKCSLTKTPARKSPHVTAPGSASKGQAVFRTPKSKATERTSIAVITPFKLMTEATQTPSSSKKPVFDLKASLSRPLNYKPHKGKLKPWGQAKENNSLNERVSRVTFHRKTYKQPHLQTREERWKRQEQERKEKKEKLLEARRNLGVTKAQ
modifications: full-length
**Q.** Which “Average logFC” value does the source give for B9 here?
**A.** The value was −1.264.

**Q.** What about the “M1-1 Log2 Median Normalized” value of the same molecule?
**A.** Its value is −1.354.

**Q.** And the “M1-2 Log2 Median Normalized” value?
**A.** The value was −0.911.

**Q.** And the “M2-1 Log2 Median Normalized” value?
**A.** Its value is −1.2565.

**Q.** And the “M2-2 Log2 Median Normalized” value?
**A.** The value was −1.536.

**Q.** What about the change of the same molecule?
**A.** Its change is “down”.
